Substrate in data set [1]: OCc1ccccc1O[C@@H]1O[C@H](CO)[C@@H](O)[C@H](O)[C@H]1O
Kind of data set: DNS reducing sugar assay, Michaelis-Menten / Lineweaver-Burk fit. It counts as biochemical, Paenibacillus polymyxa. Particulars: 50 °C, pH 7.0, bacterial supernatant. From the text: DNS reducing sugar assay, Michaelis-Menten / Lineweaver-Burk fit on BglB

Substrate in data set [2]: OCc1ccccc1O[C@@H]1O[C@H](CO)[C@@H](O)[C@H](O)[C@H]1O
The description is as above. It counts as biochemical, Paenibacillus polymyxa. Particulars: 50 °C, pH 7.0, bacterial supernatant. From the text: DNS reducing sugar assay, Michaelis-Menten / Lineweaver-Burk fit on BglA
The source holds these as a separate data set.

B1: BglB (Paenibacillus polymyxa) (protein)
chain: NTFIFPATFMWGTSTSSYQIEGGTDEGGRTPSIWDTFCQIPGKVIGGDCGDVACDHFHHFKEDVQLMKQLGFLHYRFSVAWPRIMPAAGIINEEGLLFYEHLLDEIELAGLIPMLTLYHWDLPQWIEDEGGWTQRETIQHFKTYASVIMDRFGERINWWNTINEPYCASILGYGTGEHAPGHENWREAFTAAHHILMCHGIASNLHKEKGLTGKIGITLNMEHVDAASERPEDVAAAIRRDGFINRWFAEPLFNGKYPEDMVEWYGTYLNGLDFVQPGDMELIQQPGDFLGINYYTRSIIRSTNDASLLQVEQVHMEEPVTDMGWEIHPESFYKLLTRIEKDFSKGLPILITENGAAMRDELVNGQIEDTGRHGYIEEHLKACHRFIEEGGQLKGYFVWSFLDNFEWAWGYSKRFGIVHINYETQERTPKQSALWFKQMMAKNGF
notes: amplified from yak rumen metagenomic DNA; usp45 signal peptide, pMG36e, secreted by L. lactis NZ9000; about 55 kDa; gene 1361 bp; supernatant / TCA-acetone precipitate
In general, Km refers to the concentration of substrate that gives half-maximal velocity. In general, Vmax refers to the top rate of the reaction or transport when substrate is in excess. Broadly, the kcat is the number of substrate molecules converted per active site and unit of time at saturation. The term kcat/Km denotes the turnover number divided by the Michaelis constant. For the protein B1, in data set [1], the Michaelis-Menten constant (Km) turned out to be 43.99 µM, the Vmax was found to be 1250 µmol/min/mg, the catalytic constant (kcat) stood at 349 s⁻¹ and the catalytic efficiency (kcat/Km) came to 7.93e+06 M⁻¹ s⁻¹.

B2: BglA (Paenibacillus polymyxa) (protein)
chain: MTIFQFPQDFMWGTATAAYQIEGAYQEDGRGLSIWDTFAHTPGKVFNGDNGNVACDSYHRYEEDIRLMKELGIRTYRFSVSWPRIFPNGDGEVNQEGLDYYHRVVDLLNDNGIEPFCTLYHWDLPQALQDAGGWGNRRTIQAFVQFAETMFREFHGKIQHWLTFNEPWCIAFLSNMLGVHAPGLTNLQTAIDVGHHLLVAHGLSVRRFRELGTSGQIGIAPNVSWAVPYSTSEEDKAACARTISLHSDWFLQPIYQGSYPQFLVDWFAEQGATVPIQDGDMDIIGEPIDMIGINYYSMSVNRFNPEAGFLQSEEINMGLPVTDIGWPVESRGLYEVLHYLQKYGNIDIYITENGACINDEVVNGKVQDDRRISYMQQHLVQVHRTIHDGLHVKGYMAWSLLDNFEWAEGYNMRFGMIHVDFRTQVRTPKESYYWYRNVVSNNWLETRR
notes: as for B1
As for B2, in data set [2], the Michaelis-Menten constant (Km) came to 38.61 µM, the Vmax was found to be 1340 µmol/min/mg, the kcat turned out to be 435 s⁻¹ and the kcat/Km turned out to be 1.13e+07 M⁻¹ s⁻¹.

The values above are taken from article PMC10305218, “Expression of β-Glucosidases from the Yak Rumen in Lactic Acid Bacteria: A Genetic Engineering Approach” (Microorganisms, 2023).
